Here are results for three proteins from doi:10.1101/2021.07.06.451223 (bioRxiv, 2021).

Where a chain is given by its changes, count along the chain named. In names and notes the source's numbering stands.

The series “crystal structure” concerns the molecule itself. The series is described as follows: crystal structure.
The series “turbidity assay” deals with the molecule itself. Kind of series: turbidity assay.

B1: CASQ1 S248E (amino acids 35-396) (natural protein, human, UniProt P31415 35-396, looked up)
chain: QEGLDFPEYDGVDRVINVNAKNYKNVFKKYEVLALLYHEPPEDDKASQRQFEMEELILELAAQVLEDKGVGFGLVDSEKDAAVAKKLGLTEVDSMYVFKGDEVIEYDGEFSADTIVEFLLDVLEDPVELIEGERELQAFENIEDEIKLIGYFKSKDSEHYKAFEDAAEEFHPYIPFFATFDSKVAKKLTLKLNEIDFYEAFMEEPVTIPDKPNEEEEIVNFVEEHRRSTLRKLKPESMYETWEDDMDGIHIVAFAEEADPDGFEFLETLKAVAQDNTENPDLSIIWIDPDDFPLLVPYWEKTFDIDLSAPQIGVVNVTDADSVWMEMDDEEDLPSAEELEDWLEDVLEGEINTEDDDDDDDD
Consider B1, for which the “stoichiometry N” value in “crystal structure” stood at 2.

B2: CASQ1 S369E (amino acids 35-396) (natural protein, human, UniProt P31415 35-396, looked up)
chain: B1 chain with E214S, S335E
Turning to B2, the binding result in the series “turbidity assay” is “binds”.

B3: CASQ1 S248/369E (amino acids 35-396) (natural protein, human, UniProt P31415 35-396, looked up)
chain: B1 chain with S335E
Turning to B3, in the series “turbidity assay”, the binding result is recorded as “binds”.
